Measurements taken from article PMC4383751.

Biological target: wild-type pyruvate kinase isoform M2 (PKM2^WT) (human) (UniProt P14618)
Experiment: SEC; gel filtration on Superdex 200 10/300 GL, in the absence of FBP; low protein concentration (less than 0.2 mg/mL); similar protein concentrations and conditions for all proteins; oxalate added in a further run (Fig. S1F)

wild-type pyruvate kinase isoform M2 (PKM2^WT), P14618 1-531 (enzyme; other documents disagree on this pair), sequence (P14618 whole entry, canonical isoform): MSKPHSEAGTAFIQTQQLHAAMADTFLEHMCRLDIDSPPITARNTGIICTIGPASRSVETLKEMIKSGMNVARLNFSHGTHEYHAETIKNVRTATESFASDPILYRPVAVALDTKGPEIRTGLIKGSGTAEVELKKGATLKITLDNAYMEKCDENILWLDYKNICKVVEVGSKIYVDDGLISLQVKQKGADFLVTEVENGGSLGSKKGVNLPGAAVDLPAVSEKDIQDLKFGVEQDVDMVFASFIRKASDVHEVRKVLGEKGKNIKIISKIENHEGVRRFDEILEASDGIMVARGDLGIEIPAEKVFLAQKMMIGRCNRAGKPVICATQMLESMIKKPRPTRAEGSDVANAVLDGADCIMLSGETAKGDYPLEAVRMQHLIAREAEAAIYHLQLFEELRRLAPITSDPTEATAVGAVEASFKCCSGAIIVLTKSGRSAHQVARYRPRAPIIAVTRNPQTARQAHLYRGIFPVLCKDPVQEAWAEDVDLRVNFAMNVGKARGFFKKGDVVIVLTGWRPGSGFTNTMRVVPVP

wild-type pyruvate kinase isoform M2 (PKM2^WT), P14618 1-531 (enzyme; other documents disagree on this pair)
stoichiometry N: 2
